Experimental data: US20250382388A1 (ARGENX, published 2025)

B1: ABDEG-30GS-Alb23-SM (Fc fusion)
chain 1: DKTHTCPPCPAPELLGGPSVFLFPPKPKDTLYITREPEVTCVVVDVSHEDPEVKFNWYVDGVEVHNAKTKPREEQYNSTYRVVSVLTVLHQDWLNGKEYKCKVSNKALPAPIEKTISKAKGQPREPQVYTLPPSRDELTKNQVSLWCLVKGFYPSDIAVEWESNGQPENNYKTTPPVLDSDGSFFLYSKLTVDKSRWQQGNVFSCSVMHEALKFHYTQKSLSLSPGGGGGSGGGGSGGGGSGGGGSGGGGSGGGGSEVQLLESGGGLVQPGGSLRLSCAASGFTFRSAGMSWVRQAPGKGPEWVSSISGSGSDTLYADSVKGRFTISRDNSKNTLYLQMNSLRPEDTAVYYCTIGGSLSRSSQGTLVTVSS
chain 2: DKTHTCPPCPAPELLGGPSVFLFPPKPKDTLYITREPEVTCVVVDVSHEDPEVKFNWYVDGVEVHNAKTKPREEQYNSTYRVVSVLTVLHQDWLNGKEYKCKVSNKALPAPIEKTISKAKGQPREPQVYTLPPSRDELTKNQVSLSCAVKGFYPSDIAVEWESNGQPENNYKTTPPVLDSDGSFFLVSKLTVDKSRWQQGNVFSCSVMHEALKFHYTQKSLSLSPG
notes: also called OA-Fc-ABDEG-30GS-Alb23-F32A; OA-ABDEG-30GS-Alb23-SM
B2: ABDEG-30GS-Alb23-SM-A (Fc fusion)
chain 1: DKTHTCPPCPAPELLGGPSVFLFPPKPKDTLYITREPEVTCVVVDVSHEDPEVKFNWYVDGVEVHNAKTKPREEQYNSTYRVVSVLTVLHQDWLNGKEYKCKVSNKALPAPIEKTISKAKGQPREPQVYTLPPSRDELTKNQVSLWCLVKGFYPSDIAVEWESNGQPENNYKTTPPVLDSDGSFFLYSKLTVDKSRWQQGNVFSCSVMHEALKFHYTQKSLSLSPGGGGGSGGGGSGGGGSGGGGSGGGGSGGGGSEVQLLESGGGLVQPGGSLRLSCAASGFTFRSAGMSWVRQAPGKGPEWVSSISGSGSDTLYADSVKGRFTISRDNSKNTLYLQMNSLRPEDTAVYYCTIGGSLSRSSQGTLVTVSSA
chain 2: B1 chain 2

Assays:
human serum albumin [1] = target: T1, human serum albumin (human, UniProt P02768 25-609); experiment: SPR, Langmuir 1:1 or steady state model, pH 5.5
T1 construct: Immobilised on SPR chips; also added in solution to the cell assays; also called HSA; humanSA

human serum albumin [2] = target: T1, human serum albumin; experiment: SPR, Langmuir 1:1 or steady state model, pH 7.4 (ka and kd N/A)
human serum albumin [3] = target: T1, human serum albumin; experiment: SPR, pH 5.5
human serum albumin [4] = target: T1, human serum albumin; experiment: SPR, pH 7.4 and 5.5
human serum albumin [5] = target: T1, human serum albumin; experiment: SPR, pH 7.4 (ka and kd N/A)
[6] = target: T2, neonatal Fc receptor (FcRn), endogenous in U937 cells (UniProt P55899 24-365; P61769 21-119); experiment: cell FcRn occupancy, flow cytometry, free FcRn stained with labelled anti-FcRn Fab, U937 cells, 2,500 nM HSA (SD 0.1)
T2 construct: whole, on cells; Free FcRn was stained inside fixed and permeabilised cells
Experimental: (§1) Next, FcRn occupancy was tested using a cell-based FcRn occupancy assay in the presence or absence of albumin. Briefly, test articles (Fc-ABDEG-VHH molecules) were pre-incubated with HSA for 30 minutes at 37° C., pH 7.4 in FACS buffer. Cells (HEK FcRn mut or U937) were plated in a 96-well microplate. Cells were incubated with test article for two hours, shaking at 37° C., pH 7.4 in FACS buffer. Plates were then transferred immediately on ice and cells were collected by centrifugation at 4° C. Cells stained for viability in FACS buffer at pH 6 and then fixed/permeabilized in permeabilization buffer at pH 6. […] Cells were analyzed by FACS, ensuring that they are kept on ice until immediately prior to analysis.

human serum albumin [7] = target: T1, human serum albumin; experiment: SPR, pH 5.5 (ka and kd N/A)
[8] = target: T2, neonatal Fc receptor (FcRn), endogenous …; experiment: cell FcRn occupancy, flow cytometry, free FcRn stained with labelled anti-FcRn Fab, U937 cells, 2,500 nM HSA (SD 0.5)
Experimental: as §1

T2 sequence (P55899 24-365 limits assumed, chain 1 of 2): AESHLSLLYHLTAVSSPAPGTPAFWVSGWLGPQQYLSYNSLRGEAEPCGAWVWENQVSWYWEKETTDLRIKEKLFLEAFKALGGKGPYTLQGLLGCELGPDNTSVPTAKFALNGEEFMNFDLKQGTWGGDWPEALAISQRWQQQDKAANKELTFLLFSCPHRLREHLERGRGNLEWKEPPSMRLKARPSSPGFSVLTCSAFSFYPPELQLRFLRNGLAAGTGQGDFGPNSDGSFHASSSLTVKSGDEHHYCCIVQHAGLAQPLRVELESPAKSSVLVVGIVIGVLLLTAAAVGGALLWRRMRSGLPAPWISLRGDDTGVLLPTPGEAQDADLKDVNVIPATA
T2 sequence (P61769 21-119 limits assumed, chain 2 of 2): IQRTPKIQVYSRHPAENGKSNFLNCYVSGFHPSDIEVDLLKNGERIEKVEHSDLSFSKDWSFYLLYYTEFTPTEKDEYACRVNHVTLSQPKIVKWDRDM

Row | Binder | Kd (human serum albumin [1]) | koff (human serum albumin [1]) | kon (human serum albumin [1]) | Kd (human serum albumin [2]) | Kd (human serum albumin [3]) | koff (human serum albumin [3]) | kon (human serum albumin [3]) | fold decrease in affinity against OA-Fc-ABDEG-Alb23 (human serum albumin [4]) | Kd (human serum albumin [5]) | IC50 [6] | Kd (human serum albumin [7]) | IC50 [8]
1 | B1 | 20.3 µM | 0.351 s⁻¹ | 17300 M⁻¹ s⁻¹ | 49 µM | 20.3 µM | 0.351 s⁻¹ | 17300 M⁻¹ s⁻¹ | > 300 fold | 49 µM | 0.0021 µM | – | –
2 | B2 | – | – | – | – | – | – | – | – | 31.4 µM | – | 19 µM | 0.0023 µM
